In the supplement of paper PMC10724198:
± gives the standard deviation of the averaged measurements.

System: Saccharomyces cerevisiae
Assay: protein stability index of tFT-peptide fusion (C-terminal peptide) (PSI (0-1 scale)); higher = more stable (slower turnover)
Details: genetic background: wild type; temperature: 30 C
Protocol: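 MPS profiling in S. cerevisiae of the yeast C-terminome library: the last 12 aa of each annotated ORF are fused to the C-terminus of a sfGFP-mCherry timer, after a GGGS linker. Cells are FACS-sorted into 8 mCherry/sfGFP bins and deep-sequenced. PSI runs from 0 (unstable) to 1 (stable); wild type and das1Δ backgrounds, two technical replicates each.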

Q: For HLYSTLLFHSVN [RRG8 C-terminal 12 aa], which protein stability index is on record?
A: 0.543 ± 0.033

Q: HNDNSGTVLGTA [RBD2 C-terminal 12 aa] was tested. Which protein stability index did it give?
A: 0.728 ± 0.032

Q: How did the protein stability index turn out when HNGKNKNRNSKK [MPP6 C-terminal 12 aa] was run?
A: 0.669 ± 0.016

Q: With HPFLLWQGQVFF [YCR022C C-terminal 12 aa] as the sequence, how does the protein stability index read?
A: 0.6995 ± 0.0021

Q: How did the protein stability index turn out when HQDSAKYTHYYL [YER158C C-terminal 12 aa] was run?
A: 0.652 ± 0.0081

Q: For HTMENIFAGKLD [CUE4 C-terminal 12 aa], which protein stability index is on record?
A: 0.69 ± 0.011

Q: How did the protein stability index turn out when IAKRFAKALGRS [ARN2 C-terminal 12 aa] was run?
A: 0.695 ± 0.016

Q: IAQNVSRSSQQV [YMD8 C-terminal 12 aa] was tested. Which protein stability index did it give?
A: 0.731 ± 0.016

Q: ICKALVKQDLGL [LAP2 C-terminal 12 aa] was tested. Which protein stability index did it give?
A: 0.657 ± 0.035

Q: IDIPISVRQVTK [BUL1 C-terminal 12 aa] was tested. Which protein stability index did it give?
A: 0.696 ± 0.013

Q: IDKFLDHIGKSQ [FBP1 C-terminal 12 aa] was tested. Which protein stability index did it give?
A: 0.703 ± 0.012

Q: How did the protein stability index turn out when IDSIDDLVDSDT [NPP1 C-terminal 12 aa] was run?
A: 0.685 ± 0.015

Q: With IEALYKLVEEKM [NQM1 C-terminal 12 aa] as the sequence, how does the protein stability index read?
A: 0.6797 ± 0.0027

Q: IEKSKSDRRKLL [YHR022C C-terminal 12 aa] was tested. Which protein stability index did it give?
A: 0.2695 ± 0.0021

Q: For IELQLTEIPKHK [FIN1 C-terminal 12 aa], which protein stability index is on record?
A: 0.727 ± 0.085

Q: For IGELLEGIRMSI [BIT2 C-terminal 12 aa], which protein stability index is on record?
A: 0.729 ± 0.091

Q: How did the protein stability index turn out when IGPLAFLVFKTA [DYN2 C-terminal 12 aa] was run?
A: 0.18 ± 0.011

Q: IHENEESNENEG [RQC1 C-terminal 12 aa] was tested. Which protein stability index did it give?
A: 0.663 ± 0.011

Q: For IHYLLHIERERK [YOR385W C-terminal 12 aa], which protein stability index is on record?
A: 0.681 ± 0.014

Q: IIRSEKKKKEEQ [YBR292C C-terminal 12 aa] was tested. Which protein stability index did it give?
A: 0.659 ± 0.039

Q: IKETIQRLTDDR [GMC2 C-terminal 12 aa] was tested. Which protein stability index did it give?
A: 0.676 ± 0.015

Q: How did the protein stability index turn out when “IKIRIYSPRSIS [YDL240C-A C-terminal 12 aa]” was run?
A: 0.519 ± 0.021

Q: Which protein stability index does the source give for IKKYNITSPFLD [NSE4 C-terminal 12 aa] here?
A: 0.686 ± 0.004

Q: For IKRRSNVGVVML [NMT1 C-terminal 12 aa], which protein stability index is on record?
A: 0.6363 ± 0.0032

Q: For IKSVHVDLSLDK [ALD3 C-terminal 12 aa], which protein stability index is on record?
A: 0.704 ± 0.043

Q: How did the protein stability index turn out when ILHERNIPLEKI [TPT1 C-terminal 12 aa] was run?
A: 0.701 ± 0.048

Q: How did the protein stability index turn out when ILIRKKLKAENI [OPY1 C-terminal 12 aa] was run?
A: 0.646 ± 0.053

Q: Which protein stability index does the source give for ILLHLEYAAAYS [STN1 C-terminal 12 aa] here?
A: 0.552 ± 0.02

Q: INILPVRKKKKV [SAS4 C-terminal 12 aa] was tested. Which protein stability index did it give?
A: 0.685 ± 0.036

Q: Which protein stability index does the source give for INKASVKFFFFA [YJL119C C-terminal 12 aa] here?
A: 0.227 ± 0.0039

Q: How did the protein stability index turn out when INNTDITLYNDV [YPL068C C-terminal 12 aa] was run?
A: 0.696 ± 0.056

Q: Which protein stability index does the source give for IQELVNTIRELQ [YPL077C C-terminal 12 aa] here?
A: 0.642 ± 0.0078

Q: Which protein stability index does the source give for IQISDVSMSPSL [PEX31 C-terminal 12 aa] here?
A: 0.717 ± 0.019

Q: For IQKDSMVHPGKK [VAC7 C-terminal 12 aa], which protein stability index is on record?
A: 0.663 ± 0.034

Q: For IQQTNSFLREII [YDL211C C-terminal 12 aa], which protein stability index is on record?
A: 0.7056 ± 0.0041

Q: IRLLTYLLRKIE [YLR230W C-terminal 12 aa] was tested. Which protein stability index did it give?
A: 0.351 ± 0.023

Q: With ISFDLCGKQNFQ [MTC7 C-terminal 12 aa] as the sequence, how does the protein stability index read?
A: 0.719 ± 0.044

Q: ISIALEGHTLFL [PDE1 C-terminal 12 aa] was tested. Which protein stability index did it give?
A: 0.70608 ± 0.00038

Q: With ISIEELAQYLKK [RIB3 C-terminal 12 aa] as the sequence, how does the protein stability index read?
A: 0.672 ± 0.049

Q: How did the protein stability index turn out when ISKLKGISKPSP [MDS3 C-terminal 12 aa] was run?
A: 0.687 ± 0.023

Q: How did the protein stability index turn out when ISNLPECLGNLC [ANR2 C-terminal 12 aa] was run?
A: 0.6926 ± 0.006

Q: For ITKSSNKFVNNV [YNL043C C-terminal 12 aa], which protein stability index is on record?
A: 0.736 ± 0.091

Q: Which protein stability index does the source give for ITLESGSYKFQD [SRP40 C-terminal 12 aa] here?
A: 0.639 ± 0.0026

Q: With ITSKRKAELLLK [DIS3 C-terminal 12 aa] as the sequence, how does the protein stability index read?
A: 0.7544 ± 0.007

Q: How did the protein stability index turn out when IVRPLELKYFGR [FCY22 C-terminal 12 aa] was run?
A: 0.688 ± 0.04

Q: Which protein stability index does the source give for IWVVDSLGSLVG [YPL142C C-terminal 12 aa] here?
A: 0.699 ± 0.037

Q: How did the protein stability index turn out when IYIQTPINDFKS [SLM1 C-terminal 12 aa] was run?
A: 0.678 ± 0.013

Q: Which protein stability index does the source give for IYKEKYMKQGPK [DSF2 C-terminal 12 aa] here?
A: 0.701 ± 0.084

Q: Which protein stability index does the source give for IYYMEQMLGKTQ [HSK3 C-terminal 12 aa] here?
A: 0.696 ± 0.024

Q: With KALNEIFMITND [PXR1 C-terminal 12 aa] as the sequence, how does the protein stability index read?
A: 0.763 ± 0.033

Q: How did the protein stability index turn out when KAPKSPEVIEID [UFD1 C-terminal 12 aa] was run?
A: 0.684 ± 0.027

Q: How did the protein stability index turn out when KARPFKCSDKKQ [MZM1 C-terminal 12 aa] was run?
A: 0.72792 ± 0.00048

Q: KDEPVKAHNKLK [SAS5 C-terminal 12 aa] was tested. Which protein stability index did it give?
A: 0.654 ± 0.023

Q: With KDETPEDNLEDK [VBA3 C-terminal 12 aa] as the sequence, how does the protein stability index read?
A: 0.653 ± 0.017

Q: Which protein stability index does the source give for KDNNISSYGSII [YPL162C C-terminal 12 aa] here?
A: 0.668 ± 0.011

Q: How did the protein stability index turn out when KEANPIKITPQP [MDL2 C-terminal 12 aa] was run?
A: 0.708 ± 0.0083

Q: With KELEPVPPVSKS [OMS1 C-terminal 12 aa] as the sequence, how does the protein stability index read?
A: 0.671 ± 0.01

Q: KEMWITGKIVED [IML1 C-terminal 12 aa] was tested. Which protein stability index did it give?
A: 0.6639 ± 0.0055

Q: With KGCYKLCKNLLE [KEI1 C-terminal 12 aa] as the sequence, how does the protein stability index read?
A: 0.696 ± 0.043

Q: How did the protein stability index turn out when KGDGKFWSSKKD [OM45 C-terminal 12 aa] was run?
A: 0.6744 ± 0.0029

Q: With KGFQFGLGLAFL [SAM50 C-terminal 12 aa] as the sequence, how does the protein stability index read?
A: 0.69 ± 0.019
